Biological target: SARS-CoV-2 RBD (residues V320 to G550, strain Wuhan-Hu-1), C-terminal His tag (SARS-CoV-2, UniProt P0DTC2 320-550)
Test: BLI

B1: human-mouse chimeric antibody 3C1 (c3C1) (antibody, V domains shown)
VH: EVQLQESGPSLVKPSQTLSLTCSVTGDSITNGYWNWIRKFPGNKLEYMGYISYSGSTYYSPSLKSRISITRDTSKNQHYLQLNSVTSEDTATYYCASDYHGSKYYFDYWGQGTTLTVSS
VL: DIVMTQSHKFMSTSVGHRVSITCKASQDVGNDVAWYQQKPGQSPKLLIYWASTRHTGVPDRFTGSGSGTDFTLTISNVQSEDLADYFCQQYNRYPYTFGGGTKLEIK
**Q.** For B1, which koff is on record?
**A.** < 1e-07 s⁻¹

— PMC7801428 (2021)
